The record followed here is PMC11606499, “Molecular principles of the assembly and construction of a carboxysome shell” (Science Advances, 2024).

Where a chain is given by its changes, count along the chain named. Numbers in names are those of the source.

B1: CsoS1A (in recombinant α-carboxysome midi-shells) (natural protein, Halothiobacillus neapolitanus c2)
chain: MADVTGIALGMIETRGLVPAIEAADAMTKAAEVRLVGRQFVGGGYVTVLVRGETGAVNAAVRAGADACERVGDGLVAAHIIARVHSEVENILPKAPQA
notes: CsoS1A, hexameric shell protein of the α-carboxysome, Halothiobacillus neapolitanus c2; the gene as it stands in the midi-shell operon derived from the synthetic cso-2 operon; CsoS1A, CsoS1B and CsoS1C could not be told apart in the symmetrised maps; also called CsoS1 hexamer; BMC-H; source: E. coli BW25113, midi-shell operon (L-arabinose induced), in purified shells
B2: CsoS1A (untagged, coexpressed with His-tagged CsoS1B) (natural protein, Halothiobacillus neapolitanus c2)
chain: B1 chain
notes: CsoS1A, Halothiobacillus neapolitanus c2; gene amplified from the cso-2 operon, the His tag stands on CsoS1B only; also called S1A-S1B (coexpressed sample); source: E. coli BL21 (DE3), pET-22b csoS1A-csoS1B, co-purified with His-tagged CsoS1B (Ni-NTA, Superdex 200)
B3: CsoS1C (individually expressed, C-terminal His tag) (natural protein, Halothiobacillus neapolitanus c2)
chain: B1 chain with D3A, Q97E
notes: CsoS1C, Halothiobacillus neapolitanus c2; gene fragment amplified from the cso-2 operon; source: E. coli BL21 (DE3), pET-22b, purified (Ni-NTA, Superdex 200)
B4: CsoS1C (in the CsoS1C-based T = 9 mini-shell) (natural protein, Halothiobacillus neapolitanus c2)
chain: B1 chain with D3A, Q97E
notes: CsoS1C, shell hexamer paralog, Halothiobacillus neapolitanus c2; differs from CsoS1A at the 3rd and 97th amino acids; the gene as it stands in the mini-shell operon; source: E. coli BW25113, CsoS1C-based mini-shell operon, in purified shells
B5: His-tagged CsoS1A (individually expressed) (natural protein, Halothiobacillus neapolitanus c2)
chain: B1 chain
notes: CsoS1A, Halothiobacillus neapolitanus c2; gene fragment amplified from the cso-2 operon; source: E. coli BL21 (DE3), pET-22b, purified (Ni-NTA, Superdex 200); not shown: His tag, C-terminal, kept
B6: CsoS1C (untagged, coexpressed with His-tagged CsoS1B) (natural protein, Halothiobacillus neapolitanus c2)
chain: B1 chain with D3A, Q97E
notes: CsoS1C, Halothiobacillus neapolitanus c2; gene amplified from the cso-2 operon, the His tag stands on CsoS1B only; source: E. coli BL21 (DE3), pET-22b csoS1C-csoS1B, co-purified with His-tagged CsoS1B (Ni-NTA, Superdex 200)
B7: CsoS4A (in recombinant α-carboxysome shells) (natural protein, Halothiobacillus neapolitanus c2)
chain: MKIMQVEKTLVSTNRIADMGHKPLLVVWEKPGAPRQVAVDAIGCIPGDWVLCVGSSAAREAAGSKSYPSDLTIIGIIDQWNGE
notes: CsoS4A, pentameric vertex protein of the α-carboxysome shell, Halothiobacillus neapolitanus c2; the gene as it stands in the shell operon; All pentamers of the shell models were assigned to CsoS4A; also called CsoS4 pentamer; BMC-P; source: E. coli BW25113, midi-shell operon or CsoS1C-based mini-shell operon, in purified shells
B8: CsoS4A (individually expressed, C-terminal His tag) (natural protein, Halothiobacillus neapolitanus c2)
chain: B7 chain
notes: CsoS4A, Halothiobacillus neapolitanus c2; gene fragment amplified from the cso-2 operon; In solution pentamers and other aggregation forms; source: E. coli BL21 (DE3), pET-22b, purified (Ni-NTA, Superdex 200)
B9: CsoS4B (C-terminal His tag; expressed alone or coexpressed with CsoS4A) (natural protein, Halothiobacillus neapolitanus c2, UniProt O85044 1-81, looked up)
chain: MEVMRVRSDLIATRRIPGLKNISLRVMEDATGKVSVACDPIGVPEGCWVFTISGSAARFGVGDFEILTDLTIGGIIDHWVT
notes: CsoS4B, Halothiobacillus neapolitanus c2; gene fragment amplified from the cso-2 operon; Five copies when expressed alone; source: E. coli BL21 (DE3), pET-22b, purified (Ni-NTA, Superdex 200)
B10: His-tagged CsoS1B (expressed alone or coexpressed with CsoS1A or CsoS1C) (natural protein, Halothiobacillus neapolitanus c2, UniProt P45690 1-110, looked up)
chain: MATTHGIALGMIETRGLVPAIEAADAMTKAAEVRLVGRSFVGGGYVTVMVRGETGAVNAAVRAGADACERVGDGLVAAHIIARVHSEVEIILPETPEDSDSAWCIANLNS
notes: CsoS1B, Halothiobacillus neapolitanus c2; gene fragment amplified from the cso-2 operon; Six copies when expressed alone; about 1.5 copies per hexamer in the coexpressed CsoS1A/B sample; source: E. coli BL21 (DE3), pET-22b, purified (Ni-NTA, Superdex 200); not shown: His tag, C-terminal, kept

Series [1] deals with the molecule itself. Nature of the series: cryo-EM structure; purified midi-shells assembled in E. coli from the coexpressed proteins; T = 9, T = 9 Q = 12, T = 13, T = 16 and T = 19 shells at 2.3, 2.99, 2.93, 2.75 and 3.04 Å, symmetry imposed.
The target in series [2] is T1, C-terminal domain of CsoS2 (CsoS2-C) (Halothiobacillus neapolitanus c2, UniProt O85041 604-869).
T1 construct: CsoS2, scaffolding/linker protein of the α-carboxysome, Halothiobacillus neapolitanus c2; source: E. coli BW25113, midi-shell operon or CsoS1C-based mini-shell operon, in purified shells
T1 sequence (looked up): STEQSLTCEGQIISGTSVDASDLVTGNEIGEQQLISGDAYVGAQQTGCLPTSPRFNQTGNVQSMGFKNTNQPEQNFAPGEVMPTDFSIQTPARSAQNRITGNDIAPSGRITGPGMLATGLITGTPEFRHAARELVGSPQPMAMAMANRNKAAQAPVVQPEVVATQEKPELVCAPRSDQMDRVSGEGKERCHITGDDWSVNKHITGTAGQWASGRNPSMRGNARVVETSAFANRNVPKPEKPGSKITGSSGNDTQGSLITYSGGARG
The series is described as above. As to conditions: both partners purified.

Series [3] addresses B10. Briefly: SDS-PAGE of washed crystals; crystals of the coexpressed CsoS1A and His-tagged CsoS1B sample, washed with buffer for various times before SDS-PAGE. As to conditions: both partners purified.
Series [4] concerns the molecule itself. Briefly: crystal structure; crystals of the purified coexpressed CsoS1A and His-tagged CsoS1B sample, hanging drop, 18°C; 2.1 Å.
Series [5] concerns the molecule itself. Nature of the series: SEC + other: dynamic light scattering; Superdex 200 in 50 mM tris-HCl pH 8.0, 100 mM NaCl; DLS on DynaPro NanoStar, in triplicate; proteins expressed alone or coexpressed and purified by Ni-NTA through the His tag of one of them.
Series [6] deals with the molecule itself. Briefly: cryo-EM structure; purified CsoS1C-based T = 9 mini-shell assembled in E. coli from the coexpressed proteins; 1.8 Å.
The target of series [7] is T1, C-terminal domain of CsoS2 (CsoS2-C). The description is as above. The note with it: both partners purified.
The target in series [8] is B10. Briefly: SEC + other: dynamic light scattering; Superdex 200 in 50 mM tris-HCl pH 8.0, 100 mM NaCl; DLS on DynaPro NanoStar, in triplicate; proteins expressed alone or coexpressed and purified by Ni-NTA through the His tag of one of them. As to conditions: both partners purified.
Series [9] concerns the target B4. Nature of the series: cryo-EM structure; purified CsoS1C-based T = 9 mini-shell assembled in E. coli from the coexpressed proteins; 1.8 Å. As to conditions: both partners purified.
In series [10] the target is B1. Nature of the series: cryo-EM structure; purified midi-shells assembled in E. coli from the coexpressed proteins; T = 9, T = 9 Q = 12, T = 13, T = 16 and T = 19 shells at 2.3, 2.99, 2.93, 2.75 and 3.04 Å, symmetry imposed. The note with it: both partners purified.
Series [11] concerns the molecule itself. Briefly: SEC; Superdex 200 in 50 mM tris-HCl pH 8.0, 100 mM NaCl; individually expressed CsoS4 proteins.
In series [12] the target is T2, CsoS4A (untagged, coexpressed with His-tagged CsoS4B) (Halothiobacillus neapolitanus c2, UniProt O85043 1-83).
T2 construct: CsoS4A, Halothiobacillus neapolitanus c2; gene amplified from the cso-2 operon, the His tag stands on CsoS4B only; source: E. coli BL21 (DE3), pET-22b csoS4A-csoS4B, co-purified with His-tagged CsoS4B (Ni-NTA, Superdex 200)
T2 sequence: B7 chain
Briefly: SEC + other: dynamic light scattering; Superdex 200 in 50 mM tris-HCl pH 8.0, 100 mM NaCl; DLS on DynaPro NanoStar, in triplicate; proteins expressed alone or coexpressed and purified by Ni-NTA through the His tag of one of them. As to conditions: both partners purified.

In general, stoichiometry N refers to the number of molecules, sites or subunits per partner or assembly. Consider B1, for which the “stoichiometry N” value in [1] came out at 6. The binding result in series [2] is “binds”.

In the case of B2, the “stoichiometry N” value in series [3] was roughly 3 CsoS1A per CsoS1B; in [4], 6.

B3: in [5], the “stoichiometry N” value came out at 6.

Consider B4, for which the “stoichiometry N” value in series [6] came out at 6. In [7], the binding result is on record as “binds”.

For the molecule B5, the “stoichiometry N” value in series [5] turned out to be 6.

As for B6, in series [8], the binding result is “binds”.

For the molecule B7, the binding result in [9] and in series [10] was “binds” in each case. In addition, the “stoichiometry N” value in series [1] is 5.

Consider B8, for which the “stoichiometry N” value in [11] worked out at 5.

Regarding B9, in series [12], the binding result is “binds”. The “stoichiometry N” value in series [11] was 5.

Take B10: the “stoichiometry N” value in series [5] worked out at 6.
